According to patent US20070054846A1, “Bcl-w structure and uses therefor” (priority 2002, published 2007):
One block for each molecule: values may come before it.

Experiments:
full-length Bcl-xL = biological target: T1, full-length Bcl-xL (Homo sapiens, UniProt Q07817); assay: Co-immunoprecipitation from cell extracts; type: binding; conditions: FLAG-tagged full-length Bcl-xL
T1 construct: FLAG-tagged full-length Bcl-xL or a C-terminally truncated mutant (ΔC24); expressed in transfected cells
From the text: (§1) Bcl-xL and Bcl-2 also contain hydrophobic residues at their C-termini, similar to those found in Bcl-w (FIG. 1C), yet the low level of sequence identity following α8 and the absence of 3D-structural information, makes prediction of their conformation difficult. Since BCl-xL, like Bcl-w, is only partially membrane-bound in healthy cells (Hsu et al., 1997), we compared the ability of FLAG-tagged full-length Bcl-xL or a C-terminally truncated mutant (ΔC24) to bind to BimL or the […]L94A B3 mutant.
Cell culture, stable transfections into FDC-P1, transient transfections into 293T human embryonic kidney cells, metabolic labelling with ^35S-methionine/cysteine (NEN) and co-immunoprecipitation have been previously described (O'Connor et al., 1998, Moriishi et al., 1999; Huang et al., 1998; Wilson-Annan et al., 2003). Briefly, mammalian pEF-based expression vectors for Bcl-w, BCl-xL, Bim, Bmf, Bad and Bik (O'Connor et al., 1998, Huang et al., 1998; Moriishi et al., 1999; Wilson-Annan et al., 2003) were transiently transfected using liposome mediated transfection (Lipofectamine™; Invitrogen). […] The immunoprecipitates were resolved by SDS-PAGE (Novex), transferred onto nitrocellulose membranes (APB) and the proteins detected by fluorography (Amplify; APB).

Bcl-xLΔC24 = biological target: T2, Bcl-xLΔC24 (Homo sapiens, UniProt Q07817); assay: Co-immunoprecipitation / GST pull-down; type: binding; conditions: C-terminally truncated Bcl-xL (ΔC24)
T2 construct: expressed in transfected cells
T2 sequence (Q07817 1-209 limits assumed, stated change not applied): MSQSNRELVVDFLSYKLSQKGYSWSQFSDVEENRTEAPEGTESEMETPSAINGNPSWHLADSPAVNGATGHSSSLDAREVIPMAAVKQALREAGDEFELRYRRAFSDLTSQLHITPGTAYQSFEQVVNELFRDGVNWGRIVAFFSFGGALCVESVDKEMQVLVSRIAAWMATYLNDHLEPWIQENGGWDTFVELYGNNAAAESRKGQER
From the text: as §1
Direct interactions between Bcl-w and BimL were monitored using GST pull-down experiments. These were performed in 100 μl of PBS (phosphate buffered saline pH 7.3) containing 2 mM DTT. Typically excess soluble proteins were added to equivalent amounts of resin bound proteins. After incubation at room temperature for 30 minutes the resin was pelleted and then washed twice with 200 μl of PBS containing 0.2% Tween 20. […]
Cell culture, stable transfections into FDC-P1, transient transfections into 293T human embryonic kidney cells, metabolic labelling with ^35S-methionine/cysteine (NEN) and co-immunoprecipitation have been previously described (O'Connor et al., 1998, Moriishi et al., 1999; Huang et al., 1998; Wilson-Annan et al., 2003). […] The immunoprecipitates were resolved by SDS-PAGE (Novex), transferred onto nitrocellulose membranes (APB) and the proteins detected by fluorography (Amplify; APB).

FDC-P1 myeloid cells = assay: Survival assay of cells overexpressing Bcl-w constructs; type: cell-based; conditions: overexpressed FLAG-tagged protein, IL-3 withdrawal, γ-irradiation or cytotoxic drugs
Protocol: Like its cousins Bcl-2 and Bcl-xL, Bcl-w overexpression protects cells from diverse death stimuli, including cytokine deprivation and γ-irradiation (Gibson et al., 1996).
Survival assays were performed as described previously (O'Connor et al., 1998; Huang et al., 1998; Wilson-Annan et al., 2003; and references therein). Briefly, cells (2−5×10^4 per time point) were left untreated, deprived of their essential growth factor IL-3, exposed to 10Gy γ-irradiation (provided by a ^60Co source), 1-100 nM staurosprorine (Sigma). Cell viability was quantified by flow cytometric analysis of cells excluding 5 μg/mL PI (Sigma) using a FACScan (Becton Dickinson). Each time point was performed in triplicate on at least 3 independent clones of each genotype and the experiments repeated at least 3 times.

Bcl-wΔC29 [1] = biological target: T3, Bcl-wΔC29 (Homo sapiens, UniProt Q92843, Q133R); assay: BIAcore surface plasmon resonance, truncated Bcl-w in solution on immobilised Bim; type: binding; conditions: for Kd: Bcl-w truncated by 29 residues at the C-terminus
T3 construct: GST (N, cleaved yes); made in house; host or cells: E. coli BL21(DE3)
T3 sequence (Q92843 1-164 Q133R): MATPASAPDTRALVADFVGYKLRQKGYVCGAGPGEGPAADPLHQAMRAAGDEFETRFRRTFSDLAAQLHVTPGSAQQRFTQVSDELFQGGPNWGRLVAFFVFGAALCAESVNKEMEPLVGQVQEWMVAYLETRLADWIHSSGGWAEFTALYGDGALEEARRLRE
From the text: (§2) Human Bcl-w and mouse BimL were expressed as glutathione-S-transferase (GST) fusion proteins in E. coli BL21(DE3) and purified by affinity chromatography using Glutathione Sepharose (APB; Amersham Pharmacia Biotech). Following purification of the GST-fusion proteins Bcl-w and Bim were released from GST using PreScission protease (APB) and then further purified by size exclusion chromatography using a Superdex-75 column. All the purified proteins have 5 additional N-terminal residues (GPLGS) as a result of cloning. Isotopically labelled proteins were prepared as described previously (Day et al., 1999). Samples of Bcl-wΔC10 used for NMR contained ˜1.0 mM protein in 50 mM sodium phosphate (pH 6.7), 70 mM NaCl, 2 mM tris-(2-carboxyethyl) phosphine (TCEP) and 0.04% sodium azide in H2O:^2H2O (95:5). The Bcl-wΔC5 sample contained 0.4 mM protein in the same buffer. Site specific mutants of BimL and Bcl-w were generated using a PCR based strategy as described previously (Day et al., 1999). The sequence of all clones was confirmed by sequencing.
Analysis of protein interactions by surface plasmon resonance was carried out on a BIAcore 2000 biosensor (BIAcore). For the immobilisation to BIAcore CM 5 sensorchips (BIAcore), wild-type or mutant Bim proteins were buffer exchanged into 20 mM Na-acetate, pH 4.5. N-hydroxysuccinimide coupling and binding analysis was done as described previously (Lackmann et al., 1997). In order to minimise mass-transport mediated effects the kinetic experiments were routinely carried out at 20 μl/min. Bcl-w binding at concentrations between 2 and 0.03 μM in running buffer (10 mM HEPES, pH 7.4, 150 mM NaCl, 3.4 mM EDTA, 0.005% Tween 20) was performed on sensorchip surfaces derivatised on parallel channels with a non-relevant protein, BimLΔC27 and BimLΔC27-L94A. The binding kinetics were derived from the sensorgrams following subtraction of baseline responses (measured on the control channel) by ‘global analysis’ using the BIA Evaluation software (vers. 3.02, BIAcore). […]

Bcl-wΔC10 = biological target: T4, Bcl-wΔC10 (Homo sapiens, UniProt Q92843, A128E/Q133R); assay: GST pull-down; type: binding
T4 construct: made in house; host or cells: E. coli BL21(DE3)
T4 sequence (Q92843 1-183 A128E/Q133R): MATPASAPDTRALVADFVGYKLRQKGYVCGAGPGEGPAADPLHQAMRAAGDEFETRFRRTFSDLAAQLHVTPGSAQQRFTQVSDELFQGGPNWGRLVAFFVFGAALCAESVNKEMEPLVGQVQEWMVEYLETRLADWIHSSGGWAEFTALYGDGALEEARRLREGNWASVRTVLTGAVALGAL
From the text: as §2
(§3) Direct interactions between Bcl-w and BimL were monitored using GST pull-down experiments. These were performed in 100 μl of PBS (phosphate buffered saline pH 7.3) containing 2 mM DTT. Typically excess soluble proteins were added to equivalent amounts of resin bound proteins. After incubation at room temperature for 30 minutes the resin was pelleted and then washed twice with 200 μl of PBS containing 0.2% Tween 20. After removal of the second wash 10 μl of SDS-PAGE sample buffer was added to each sample and the samples were boiled then loaded onto 16% polyacrylamide gels that were electrophoresed and stained with Coomassie Blue R250. The staining intensity of the bound soluble protein indicated the strength of the interaction between the two proteins.

Bcl-wΔC20 = biological target: T5, Bcl-wΔC20 (Homo sapiens, UniProt Q92843, Q133R); assay: GST pull-down; type: binding
T5 construct: made in house; host or cells: E. coli BL21(DE3)
T5 sequence (Q92843 1-173 Q133R): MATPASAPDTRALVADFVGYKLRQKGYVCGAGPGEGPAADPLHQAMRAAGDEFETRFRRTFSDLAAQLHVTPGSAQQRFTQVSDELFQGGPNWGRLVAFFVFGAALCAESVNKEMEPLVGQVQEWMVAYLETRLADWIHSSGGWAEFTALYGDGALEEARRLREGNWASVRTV
From the text: as §2, §3

Bcl-wΔC29 [2] = biological target: T3, Bcl-wΔC29; assay: GST pull-down; type: binding
From the text: as §2, §3

full length Bcl-w [3] = biological target: T6, full length Bcl-w (Homo sapiens, UniProt Q92843, Q133R); assay: BIAcore surface plasmon resonance, Bcl-w protein in solution on immobilised Bim; type: binding; parameters: GST (N, cleaved yes); made in house; host or cells: E. coli BL21(DE3); conditions: for Kd: 1:1 Langmuir model, global analysis
T6 sequence (Q92843 1-193 Q133R): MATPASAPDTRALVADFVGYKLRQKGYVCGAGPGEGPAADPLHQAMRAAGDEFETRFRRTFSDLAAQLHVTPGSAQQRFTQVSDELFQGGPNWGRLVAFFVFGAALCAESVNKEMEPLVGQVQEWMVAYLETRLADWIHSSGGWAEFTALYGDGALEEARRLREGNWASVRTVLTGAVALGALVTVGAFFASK
From the text: as §2
Analysis of protein interactions by surface plasmon resonance was carried out on a BIAcore 2000 biosensor (BIAcore). For the immobilisation to BIAcore CM 5 sensorchips (BIAcore), wild-type or mutant Bim proteins were buffer exchanged into 20 mM Na-acetate, pH 4.5. N-hydroxysuccinimide coupling and binding analysis was done as described previously (Lackmann et al., 1997). In order to minimise mass-transport mediated effects the kinetic experiments were routinely carried out at 20 μl/min. Bcl-w binding at concentrations between 2 and 0.03 μM in running buffer (10 mM HEPES, pH 7.4, 150 mM NaCl, 3.4 mM EDTA, 0.005% Tween 20) was performed on sensorchip surfaces derivatised on parallel channels with a non-relevant protein, BimLΔC27 and BimLΔC27-L94A. The binding kinetics were derived from the sensorgrams following subtraction of baseline responses (measured on the control channel) by ‘global analysis’ using the BIA Evaluation software (vers. 3.02, BIAcore). The surface of the chip was regenerated with 50 mM 1,2-diethylamine containing 0.1% Triton X100, followed by two washes with running buffer.

full length Bcl-w [4] = biological target: T6, full length Bcl-w; assay: GST pull-down; type: binding; parameters: N-terminally FLAG-tagged full-length or C-terminally truncated Bcl-w; expressed in transfected cells; host or cells: 293T human embryonic kidney cells (pEF-based vector, transient)
From the text: as §2
Direct interactions between Bcl-w and BimL were monitored using GST pull-down experiments. These were performed in 100 μl of PBS (phosphate buffered saline pH 7.3) containing 2 mM DTT. Typically excess soluble proteins were added to equivalent amounts of resin bound proteins. […]

T1 sequence (Q07817 whole entry, species assumed, the tested form may be a part): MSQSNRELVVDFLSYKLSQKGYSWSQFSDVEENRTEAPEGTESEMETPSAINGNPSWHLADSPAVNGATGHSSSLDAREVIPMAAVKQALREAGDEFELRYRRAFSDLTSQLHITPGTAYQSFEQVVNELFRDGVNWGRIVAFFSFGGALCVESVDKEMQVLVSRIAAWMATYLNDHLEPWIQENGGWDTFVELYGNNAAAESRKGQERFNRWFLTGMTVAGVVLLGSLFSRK

B1: BimL-L94A: BimL with BH3 mutation L94A (protein)
chain: MAKQPSDVSSECDREGGQLQPAERPPQLRPGAPTSLQTEPQDRSPAPMSCDKSTQTPSPPCQAFNHYLSAMASIRQSQEEPEDLRPEIRIAQEARRIGDEFNETYTRRVFANDYREAEDHPQMVILQLLRFIFRLVWRRH
modifications: left off: small tags and cut ends
association in cell extracts (full-length Bcl-xL): associates only with wild-type BimL
binding (Bcl-xLΔC24): bound wild-type BimL and the L94A mutant equally

B2: Bcl-wΔC3: C-terminal truncated variant of Bcl-w lacking 3 residues (protein)
single chain: MATPASAPDTRALVADFVGYKLRQKGYVCGAGPGEGPAADPLHQAMRAAGDEFETRFRRTFSDLAAQLHVTPGSAQQRFTQVSDELFQGGPNWGRLVAFFVFGAALCAESVNKEMEPLVGQVQEWMVAYLETRLADWIHSSGGWAEFTALYGDGALEEARRLREGNWASVRTVLTGAVALGALVTVGAFF
pro-survival activity (FDC-P1 myeloid cells): fully active

B3: Bcl-wΔC10: SEQ ID NO:2; Bcl-w derivative lacking the last 10 residues, Ala128 substituted with glutamate (protein)
chain: MATPASAPDTRALVADFVGYKLRQKGYVCGAGPGEGPAADPLHQAMRAAGDEFETRFRRTFSDLAAQLHVTPGSAQQRFTQVSDELFQGGPNWGRLVAFFVFGAALCAESVNKEMEPLVGQVQEWMVEYLETRLADWIHSSGGWAEFTALYGDGALEEARRLREGNWASVRTVLTGAVALGAL
modifications: Bcl-w deltaC10 A128E
notes: Bcl-w derivative lacking the last 10 residues, Ala128 substituted with glutamate
pro-survival activity (FDC-P1 myeloid cells): biologically inert

B4: Bcl-wΔC5: C-terminal truncated variant of Bcl-w lacking 5 residues (protein)
single chain: MATPASAPDTRALVADFVGYKLRQKGYVCGAGPGEGPAADPLHQAMRAAGDEFETRFRRTFSDLAAQLHVTPGSAQQRFTQVSDELFQGGPNWGRLVAFFVFGAALCAESVNKEMEPLVGQVQEWMVAYLETRLADWIHSSGGWAEFTALYGDGALEEARRLREGNWASVRTVLTGAVALGALVTVGA
pro-survival activity (FDC-P1 myeloid cells): behaved like the full-length protein
pro-survival activity (FDC-P1 myeloid cells; listed as ΔC5): fully active

More lines, now with the values ahead:

Kd (Bcl-wΔC29 [1]): 11 nM
increase in the association rate versus full length Bcl-w (Bcl-wΔC29 [1]; Bcl-wΔC29): three-fold
binding in GST pull-down (Bcl-wΔC10): bound
binding in GST pull-down (Bcl-wΔC20): bound equally well
binding in GST pull-down (Bcl-wΔC29 [2]): bound equally well
Kd (full length Bcl-w [3]): 24 nM
binding in GST pull-down (full length Bcl-w [4]): bound
B5: BimLΔC27: Purified, C-terminally truncated mouse BimL, a BH3-only protein (protein)
chain: GPLGSMAKQPSDVSSECDREGGQLQPAERPPQLRPGAPTSLQTEPQDRSPAPMSCDKSTQTPSPPCQAFNHYLSAMASIRQSQEEPEDLRPEIRIAQELRRIGDEFNETYTRRVFAND

Kd (Bcl-wΔC29 [1]): 13 nM
binding in GST pull-down (Bcl-wΔC10): only bound wt BimLΔC27
binding in GST pull-down (Bcl-wΔC20): bound equally well
binding in GST pull-down (Bcl-wΔC29 [2]): bound equally well
decrease in the association rate versus wild-type Bim (full length Bcl-w [3]): 10 fold
increase in the dissociation rates versus wild-type Bim (full length Bcl-w [3]): five-fold
reduction of affinity versus wild-type Bim (full length Bcl-w [3]): over 60 fold
Kd (full length Bcl-w [3]): 1600 nM
binding in GST pull-down (full length Bcl-w [4]): only bound wt BimLΔC27
B6: BimLΔC27-L94A: Mutant version of C-terminally truncated BimL with BH3 domain mutation L94A (protein)
chain: GPLGSMAKQPSDVSSECDREGGQLQPAERPPQLRPGAPTSLQTEPQDRSPAPMSCDKSTQTPSPPCQAFNHYLSAMASIRQSQEEPEDLRPEIRIAQEARRIGDEFNETYTRRVFAND
